From patent publication US20230212511A1

Experiments:
[1] = biological target: full length human TpoR (wild type), expressed on transduced cells (human) (UniProt P40238); experiment: cell-based or functional assay
[2] = biological target: mutant truncated (mt) TpoR, lacking the final five amino acids (human) (UniProt P40238); experiment: cell-based or functional assay

enrichment of TpoR positive primary human T-cells (from 20% transduced) in the presence of Tpo (% TpoR positive) [1]: 87.5 | enrichment of TpoR positive primary human T-cells (from 20% transduced) in the presence of Tpo (% TpoR positive) [2]: 77.9
Substance: recombinant human Tpo (Miltenyi Biotec) (from UniProt P40225 22-195) (ligand)
